Source: IntAct's records for PubMed 11731480

B1: Histone acetyltransferase SAS2 (Saccharomyces cerevisiae), P40963 (parent)
chain: MARSLSQSLTATTQKLKGKKNGGKGKNKPSAKIKKTQKEMLYGILNERNIRQIQFGLNKKFSTWYGSAVYFDPETKRLGCSETKGQLSSVSNSQYWLDTLFVCEYCFKYTDDQTRFVGHVASCPFQYRVPGKIKYKSPEYTIRRVKGSKYQLFCQCLCLFTKLYLDNKSMYFKVDHYEFYIVYETGSTKPMGFFSKDLVSYQQNNLACILIFPPYQRRGLGLLLIEFSYKLSQLEGVISGPEVPLSPFGLIGYLKYWSQILCWHLIEGDLAHYDKVTLEDLSIVTGMRVNDVILTLKHLNCIGENNQIYLQSLNSWLKLHGTKRNWFKLKDEYLLIDD
partner: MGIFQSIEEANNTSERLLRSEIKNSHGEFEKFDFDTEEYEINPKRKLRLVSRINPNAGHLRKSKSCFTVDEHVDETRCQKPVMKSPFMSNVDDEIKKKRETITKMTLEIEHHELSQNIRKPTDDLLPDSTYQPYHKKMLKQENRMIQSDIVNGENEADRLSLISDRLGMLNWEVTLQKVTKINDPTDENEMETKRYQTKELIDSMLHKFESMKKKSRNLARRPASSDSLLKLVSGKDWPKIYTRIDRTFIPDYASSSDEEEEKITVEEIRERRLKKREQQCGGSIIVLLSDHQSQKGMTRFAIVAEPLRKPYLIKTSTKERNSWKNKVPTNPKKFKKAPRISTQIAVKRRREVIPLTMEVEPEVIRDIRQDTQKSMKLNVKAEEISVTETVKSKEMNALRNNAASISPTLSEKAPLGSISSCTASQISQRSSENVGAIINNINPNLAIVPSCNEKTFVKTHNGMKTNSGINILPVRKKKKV
B2: Histone acetyltransferase SAS2 (Saccharomyces cerevisiae), P40963 (parent)
chain: B1 chain

Variants of: B1
Conditions: with sas4_yeast SAS4, Q04003

effect of a mutation on the interaction | Variant
decreasing interaction | P213A;P214V
decreasing interaction | C106L

Variants of: B2
Conditions: with caf1a_yeast RLF2, Q12495
Sequence of caf1a_yeast RLF2, Q12495 (Q12495 whole entry): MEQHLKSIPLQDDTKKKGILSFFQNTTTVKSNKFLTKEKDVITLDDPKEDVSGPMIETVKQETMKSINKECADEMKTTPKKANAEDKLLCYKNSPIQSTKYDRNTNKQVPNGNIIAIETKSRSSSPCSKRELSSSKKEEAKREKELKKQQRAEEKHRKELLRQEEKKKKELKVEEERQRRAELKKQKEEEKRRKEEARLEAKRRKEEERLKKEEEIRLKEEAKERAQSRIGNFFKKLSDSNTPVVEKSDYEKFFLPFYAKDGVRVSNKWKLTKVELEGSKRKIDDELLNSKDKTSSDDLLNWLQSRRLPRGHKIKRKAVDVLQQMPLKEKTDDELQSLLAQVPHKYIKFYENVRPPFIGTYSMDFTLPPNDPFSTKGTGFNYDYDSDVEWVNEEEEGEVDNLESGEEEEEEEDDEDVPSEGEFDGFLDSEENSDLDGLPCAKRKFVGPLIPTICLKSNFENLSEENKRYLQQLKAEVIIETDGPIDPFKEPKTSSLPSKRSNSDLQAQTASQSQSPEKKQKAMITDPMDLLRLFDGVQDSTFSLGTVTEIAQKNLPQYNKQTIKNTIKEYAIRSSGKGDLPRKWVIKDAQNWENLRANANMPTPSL

effect of a mutation on the interaction | Variant
decreasing interaction | P213A;P214V
decreasing interaction | C106L
